Residue numbers refer to the chain shown, from its start. Names may count otherwise.
Tests used:
[1] = tested on: TG10 binding to PNAG 0; assay: Monosaccharide inhibition of antibody binding on the array
Procedure: (§1) This example describes how TG10 binding is inhibited by glucosamine. For small molecule inhibition assays, arrays were blocked and washed as previously described. Antibodies F598 and TG10 were diluted to 5 μg/mL in binding buffer. 20 mM N-Acetyl glucosamine and 20 mM glucosamine in binding buffer was prepared and an equal volume of the monosaccharide solutions were added to the diluted antibodies. Antibody/monosaccharide samples were incubated at room temperature for 30 min with rotation prior to being applied to the array. For the TG10 glucosamine IC50 inhibition assay, TG10 was diluted to 30 nM in binding buffer. A pH adjusted 1M stock of Glucosamine.HCl in PBS with 3% BSA (pH 7.2) was prepared and a serial dilution in binding buffer was made. Equal volumes of TG10 and each of the serial diluted glucosamine stocks was combined. Antibody/monosaccharide samples were incubated at RT for 30 min with rotation prior to being applied to the array.
(§2) Monosaccharide inhibition of both TG10 and F598 was studied on the array. The antibodies were incubated with 10 mM glucosamine, galactosamine, N-acetyl glucosamine, and N-acetyl galactosamine and then applied to the array. The binding of TG10 with PNAG 0 and of F598 with PNAG 31 were analyzed with and without monosaccharide inhibitors (FIGS. 5A-5D). Glucosamine had the greatest effect on TG10 binding to PNAG 0, reducing signal intensity by 94% at 10 mM […] (100% at 100 mM […]). As expected, N-acetyl glucosamine inhibited F598 binding with PNAG 31, reducing RFU by 74% at 10 mM GlcNAc and 99% at 100 mM GlcNAc. […] To further illuminate the small molecule inhibition properties of glucosamine on TG10, IC50 values for glucosamine was determined by titrating GlcNH2 with TG10.

[2] = tested on: F598 binding with PNAG 31; assay: as above
Procedure: as §1, §2

[3] = target: TG10 binding to PNAG 0, PNAG 1, and PNAG 16; assay: TG10 glucosamine IC50 inhibition assay on the array; conditions: three best binding conjugates on the array (PNAG 0, PNAG 1, PNAG 16); TG10 diluted to 30 nM
Procedure: as §1
Monosaccharide inhibition of both TG10 and F598 was studied on the array. […] The binding of TG10 with PNAG 0 and of F598 with PNAG 31 were analyzed with and without monosaccharide inhibitors (FIGS. 5A-5D). […] To further illuminate the small molecule inhibition properties of glucosamine on TG10, IC50 values for glucosamine was determined by titrating GlcNH2 with TG10.

[4] = target: PNAG 0 (fully deacetylated glucosamine pentasaccharide conjugate); assay: Glycan microarray binding / apparent KD
Procedure: (§3) Neoglycoprotein (NGP) microarray fabrication was performed as follows. Several NGP microarrays were constructed as previously described. Two large arrays (8 duplicate arrays per slide) composed of 815 and 870 neoglycoproteins, glycoproteins, glycopeptide conjugates, and controls were constructed and used for the experiments in this report. Additionally, a PNAG-focused array (16 duplicates per slide) with 49 array components was fabricated and used to determine apparent KD values. Array component parent stocks were diluted to 125-200 μg/mL into print buffer (1×PBS buffer with 2.5% (v/v) glycerol, 0.0005% (v/v) Triton-X 100, 0.0005 μg/mL soluble print dye 0.05 μg/mL Atto 532 (Sigma 06699). Formulated components were printed in duplicate onto 2D-Epoxy functionalized glass slides (Poly-An #104-00-221) or SuperEpoxy 2 microarray slides (ArrayIt) using an Arrayit NanoPrint LM60 arrayer at 60% humidity. Following the print, slides were scanned in a microarray fluorescence scanner (Innopsys, InnoScan 1100 AL) to validate that array components were successfully deposited onto the slide surface. Binding profiles for a representative set of lectins and antibodies were used as QC for each printed microarray batch. The printed NGP microarrays were stored under vacuum at −20° C.
(§4) Antibody selectivity and apparent KD were determined using a NGP microarray. A pre-assay scan was performed to control for missing features. Selectivity and affinity of most mAbs were measured on the full array. A focused array was used to acquire an apparent KD measurement. A slide module (8 well for full array and 16-well for focused array) was mounted onto each slide and blocking buffer (3% BSA in PBS, pH 7.4) was applied to each well of the array. Blocking was performed overnight at 4° C. mAbs were serial diluted in binding buffer (1% BSA in PBST, pH 7.4). Following the block, wells were washed 4× with wash buffer (PBST, PBS with 0.05% tween-20). Primary mAb incubation was performed for 2.5 hours at 37° C. The wells were washed 5× with wash buffer. A CY3-labeled secondary antibody specific for the Fc portion of human IgG was diluted 500 fold into binding buffer and added to each array well (Jackson ImmunoResearch, 109-165-098). Secondary mAb incubation was performed for 1.5 hours at 37° C. Wells were washed 5× with wash buffer. Slides were removed from the slide module and submerged in wash buffer for 5 minutes. Washed slides were dried by centrifugation @ 1000×g in a centrifuge quipped with a swing bucket rotor. Fluorescent scans were obtained at multiple PMT values to maximize dynamic range. Raw data was analyzed using GenePix 7.0 software as previously described. Selectivity profiles and apparent KD curves were plotted in excel and Graphpad Prism. Apparent Kos were determined using one-site specific binding algorithm in Graphpad Prism.

[5] = target: PNAG 1 (glucosamine tetrasaccharide with an N-acetyl glucosamine at the reducing end); assay: Glycan microarray apparent KD; format: binding; conditions: PNAG 1 conjugate on the microarray
Procedure: as §3, with “Binding profiles for a representative set of lectins and antibodies were used as QC for each printed microarray batch. The printed NGP microarrays were stored under vacuum at −20° C.” left out
(§5) Antibody selectivity and apparent KD were determined using a NGP microarray. […] Selectivity and affinity of most mAbs were measured on the full array. […] Raw data was analyzed using GenePix 7.0 software as previously described. […]

[6] = target: PNAG 16 (glucosamine tetrasaccharide with an N-acetyl glucosamine at the terminal end); assay: Glycan microarray apparent KD; format: binding; conditions: PNAG 16 conjugate on the microarray
Procedure: as §3, with “Binding profiles for a representative set of lectins and antibodies were used as QC for each printed microarray batch. The printed NGP microarrays were stored under vacuum at −20° C.” left out
as §5

[7] = tested on: S. epidermidis biofilms; assay: S. epidermidis biofilm staining, confocal microscopy; format: cell-based, Staphylococcus epidermidis; conditions: fluorescently labeled antibodies at 5 μg/ml, fixed 20 hr biofilms
Procedure: For antibody labeling, recombinantly expressed antibodies were labeled with fluorescent dyes using Invitrogen antibody dye labeling kits. Concentration and labeling efficiency was confirmed using nanodrop. For S. epidermidis biofilm formation and confocal microscopy, Staphylococcus epidermidis (Winslow and Winslow) Evans ATCC 14990 was resuspended and cultured on tryptic soy broth agar plates according to ATCC recommended procedures. Single colonies were picked into 5 mL Tryptic Soy Broth (TSB) supplemented with 0.25% glucose (BD™ TSB) and bacteria were cultured overnight at 37 C with shaking (200 RPM). The overnight culture was diluted 1:100 into aerated TSB26. 400 μl (microliters) of the aerated culture was pipetted into 8-well chambered coverglass lab-tek II system suitable for confocal microscopy. Biofilms were allowed to mature for 20 hrs @37C without agitation. Mature films were washed 2×500 μl PBS to remove planktonic bacteria. The films were fixed in 4% paraformaldehyde in PBS for 30 minutes, washed 2×500 μl PBS and stained with fluorescently labeled antibodies diluted to 5 μg/ml. The labeled films were then washed 2×500 μl PBS and then stained for 10 minutes with Hoechst stain @ 10 μg/ml. The films were washed a final time and kept under PBS for imaging. […]

[8] = tested on: Staphylococcus epidermidis (ATCC 35984) suspension culture; assay: Labeled antibody incubation with suspension cultures of microorganisms; format: cell-based; conditions: Alexa Fluor 488 labeled TG10; data not shown
[9] = tested on: S. aureus ATCC 29213 cells; assay: Binding to planktonic S. aureus, fluorescence microscopy; format: cell-based; conditions: labeled mAb, 20 μg/mL, fixed planktonic cells
Procedure: (§6) TG10 binding was evaluated in the PNAG producing strains of S. aureus ATCC 29213 and Xen 36 following overnight culturing with shaking in TSB and TB, respectively. The cells were pelleted, fixed in 4% paraformaldehyde and coated on glass chips. The plated cells were extensively washed followed by incubation with 488-labeled TG10 or 488-labeled F598 prior fluorescent microscopy. For evaluating TG10 and F598 binding with S. aureus, S. aureus […] and Xen 36 were grown in TSB and LB overnight, respectively. Cells were pelleted and fixed in 4% paraformaldehyde. Cells were calibrated to OD 0.5. 100 μl suspension were used for each sample. Each sample were pelleted and resuspended in 20 μg/mL mAb TG10, F598 or both. After shaking for 2 hours under ambient temperature, cells were pelleted, washed and transferred to glass chips and allowed to air dry. A cover slide was mounted via anti-fade media.

[10] = tested on: S. aureus Xen 36 cells; assay: as above; format: cell-based; conditions: labeled mAb, 20 μg/mL, fixed planktonic cells
Procedure: as §6

[11] = tested on: S. aureus ATCC 29213; assay: Passive immunization, S. aureus lethal dose challenge in a murine model; format: in vivo, Balb/C mice; conditions: 200 μg mAb intraperitoneally one hour before 200 million cfu via tail vein
Procedure: An in vivo study was performed to evaluate the prophylactic efficacy of TG10 against a S. aureus lethal dose challenge in a murine model of infection. TG10 and F598 were evaluated as monotherapies and as a mAb cocktail. […] The combination provided 90% survival.
Balb/C mice aged 12 weeks (n=10/group) were passively immunized with 200 μg F598, 200μ g TG10, or 100μ g F598+100μ g TG10 in 100 μl PBS intraperitoneally. 100 μl PBS was injected intraperitoneally in the negative control group (n=5). One hour later, 200 million cfu S. aureus ATCC 29213 cells were administrated via tail vein. Mice condition was monitored. A mouse unable to move or which lost more than 20% body mass was euthanized. Survival was better in all three groups when compared to the PBS control arm.

[12] = tested on: PNAG conjugates on the array (dPNAG, PNAG and intermediate levels of deacetylation); assay: Neoglycoprotein (glycan) microarray binding, 816-component array; conditions: for PNAG Binding on Array: ability to bind both dPNAG and PNAG and intermediate levels of deacetylation
[13] = tested on: PNAG conjugates on the array (dPNAG, PNAG and intermediate levels of deacetylation); assay: as above; conditions: single point mutations
Procedure: as §3, §4

CC(=O)N[C@H]1C(O)O[C@H](CO)[C@H](O)[C@@H]1O (stereo partly shown) [N-acetyl galactosamine]
reduction of signal intensity of TG10 binding to PNAG 0 ([1]; 10 mM monosaccharide): unchanged

CC(=O)N[C@H]1C(O)O[C@H](CO)[C@@H](O)[C@@H]1O (stereo partly shown) [N-acetyl glucosamine]
reduction of RFU of F598 binding with PNAG 31 ([2]; 10 mM monosaccharide): 74% | reduction of RFU of F598 binding with PNAG 31 ([2]; 100 mM monosaccharide): 99% | reduction of signal intensity of TG10 binding to PNAG 0 ([1]; 10 mM monosaccharide): 15%

N[C@H]1C(O)O[C@H](CO)[C@H](O)[C@@H]1O (stereo partly shown) [galactosamine]
reduction of signal intensity of TG10 binding to PNAG 0 ([1]; 10 mM monosaccharide): 45%

N[C@H]1C(O)O[C@H](CO)[C@@H](O)[C@@H]1O (stereo partly shown) [glucosamine]
reduction of signal intensity of TG10 binding to PNAG 0 ([1]; 10 mM monosaccharide): 94% | reduction of signal intensity of TG10 binding to PNAG 0 ([1]; 100 mM monosaccharide): 100% | IC50 [3]: 1000 to 2000 µM

B1: TG10: Antibody, HC SEQ ID NO: 3, LC SEQ ID NO: 12; primer mutations in ADI-45379 reverted to germline (antibody, V domains shown)
VH: EVQLVESGGGLVQPGGSLRLSCAVSGFPFSSYWMSWVRQAPGKGLEWVANIKEDGSEKYYVDSVKGRFTISRDNAKNSLYLQMNSLRAEDTAVYYCATDPDVGLSDSWGQGTLVTVSS
VL: EIVLTQSPGTLSLSPGDRATHSCRASQSVSRSYLAWYQQKPGQTPRLFIYGASNRATGIPDRFSGSGSGTYFTLTISRLEPEDFAVYYCQQYDSAPDTFGQGTRLEIK
modifications: TG10 Heavy Chain Variable Region; TG10 Light Chain Variable Region
notes: primer mutations in ADI-45379 reverted to germline
Kd ([4]; PNAG 0 conjugate on the microarray): 0.0083 µM | apparent KD ([4]; PNAG 0 conjugate on the microarray, given in mass concentration): 1.25 µg/mL | Kd [5]: 0.0115 µM | Kd [6]: 0.019 µM | localization of labeled antibody within the biofilm [7]: isolated to core cells within the microcolonies | fluorescent microscopy of spun-down culture [8]: strong fluorescent signal | binding to cells [9]: bound | binding to cells [10]: bound | survival compared to the PBS control group [11]: increased survival | selectivity among PNAG glycoconjugates on the array ([12]; 816-component array): excellent selectivity for the highly deacetylated PNAG conjugates PNAG 0 and PNAG 1 | PNAG Binding on Array [12]: Yes

B2: TG10 LC D116A: TG10 HC (SEQ ID NO: 3) with TG10 LC D116A (SEQ ID NO: 49) (antibody, V domains shown)
VH: B1 VH
VL: B1 VL with D97A
modifications: TG10 Heavy Chain Variable Region; Site directed mutatation of TG10 HC Variable Region
function of TG10 variant (binding to PNAG conjugates on the array) [13]: functionally dead | effect of single point mutation on binding between TG10 and PNAG 0 ([4]; fully deacetylated PNAG conjugate PNAG 0): completely removed binding | PNAG Binding on Array [12]: No
